Reference: the RNAGym collection of RNA variant scans (doi:10.1073/pnas.2313332121)
Variants at the floor of the assay were thinned out.

B1: TPR 5TU (parent)
chain: GGAUCUUCUCGAUCUAACAAAAAAGACAAAUCUGCCACAAAGCUUGAGAGCAUCUUCGGAUGCAGAGGCGGCAGCCUUCGGUGGCGCGAUAGCGCCAACGUUCUCAACUAUGACACGCAAAACGCGUGCUCCGUUGAAUGGAGUUUAUCAUG

Variants of: B1
Assay: polymerase ribozyme fitness, log enrichment relative to wild type (log ratio); higher = more active; in vitro selection for triplet polymerase activity
Outline: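 A heterodimeric triplet polymerase ribozyme had each of its subunits mutagenized by PCR into a library, which was transcribed. One round of in vitro selection, done in triplicate, annealed each library with a biotinylated primer, its partner subunit and triplets, then incubated it frozen at −7 °C before gel excision of extended constructs, streptavidin-bead capture and RT-PCR. Fitness is the logarithm of genotype enrichment relative to wild-type enrichment, based on Illumina sequencing of inputs and outputs and inverse-variance-weighted replicate averages. A base-2 logarithm is used, and genotypes were kept only with ≥10 input reads and ≥1 read per output.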
For GGAUCUUCUCGAUCUUACAAAAAAGACAAAUCUGCCACAAAGCUCGAGAGCAUCUUCGGAUGCAGAGGCGGCAGCCUUCGGUGGCGCGAUAGCGCCAACGUUCUCAACUAUGACACGCAAAAAGCGUGCUCCGUUGAAUGGAGUUUAUCAUG [A16U U45C C123A], the “polymerase ribozyme fitness (log ratio)” value was -2.97.
For GGAUCUUCUCGAUCUUACAAAAAAGACAAAUCUGCCACAAAGCUUGAGAGCAUCUUCGGAUGCAGAGGCGGCAGCCUUCGGUGGCGCGAUAGCACCAACGUUCUCAACUAUGACACGCAAAACGCGUGCUCCGUUGAAUGGAGUUUAUCAUG [A16U G94A], the “polymerase ribozyme fitness (log ratio)” value was -2.47.
For GGAUCUUCUCGAUCUUACAAAAAAGACAAAUCUGCCACAAAGCUUGAGAGCAACUUCGGAUGCAGGGGCGGCAGCCUUCGGUGGCGAGAUAGCGCCAACGUUCUCAACUAUGACACGCAAAACGCGUGCUCCGUUGAAUGGAGUUUAUCAUG [A16U U53A A66G C87A], the “polymerase ribozyme fitness (log ratio)” value was no more than -4.2.
For GGAUCUUCUCGAUCUUACAAAAAAGACAAAUCUGCCACAAAGCUUGAGAGCAUCUUCGGAAGCAGAGGCGGCAACCUUCGGUGGCGCGAUAGCGCGAACGUUCUCAACUAUGACACGCAAAACGCGUGCUCCGUUGAAUGGAGUUUAUCAUG [A16U U61A G74A C96G], the “polymerase ribozyme fitness (log ratio)” value was no more than -4.2.
With GGAUCUUCUCGAUCUUACAAAAAAGACAAAUCUGCCACAAAGCUUGAGAGCAUCUUCGGAUGCAGAGGCGGCAGCCUUCGGUGACGCGAUAGCGCCAACGUUCUCAACUAUGACACGCAAAACGCGUGCUCCGUUGAAUGGAGUUUAUCAUG [A16U G84A] the “polymerase ribozyme fitness (log ratio)” value was -2.41.
For GGAUCUUCUCGAUCUUACAAAAAAGACAAAUCUGCCACAAAGCUUGAGAGCAUCUUCGCAUGCAGAGGCGGCAGCCUUCGGUGGCGCGAUAGCGCCAACGUUCUCAACUAUGACACGCAAAACGCGUGCUCCGUUGAAUGGAGUUUAUCUUG [A16U G59C A150U], the “polymerase ribozyme fitness (log ratio)” value was -0.494.
In the case of GGAUCUUCUCGAUCUACCAAAUAAGACAAAUCUGCCUCAAAGCUUGAGAGCAUCUUCGGGUGCAGAGGCGUCAGCCUACGGUGGCGCGAUAGAGCCAACGUUCGCAACUAUGACACGCAAACCGCGUGCUCCGUUGAAUGGAGUUUAUCAUG [A17C A22U A37U A60G G71U U78A C93A U104G A122C], the “polymerase ribozyme fitness (log ratio)” value is reported as no more than -4.2.
In the case of GGAUCUUCUCGAUCUUACAAAAAAGACAAAUCUGCCACAAAGCUUGAGAGCAUCUUCGGAAGCAGAGGCGGCAGCCUUCGGUGGCGCGAUAGUGCCAACGUUCUCAACUAUGACACGCAAAACGCGUGCUCCGUUGAAUAGAUUUUAGCAUG [A16U U61A C93U G140A G143U U148G], the “polymerase ribozyme fitness (log ratio)” value is reported as no more than -4.2.
For GGAUCUUCUCGAUCUACCAAAAAUGACAAAUCUGCCACAAAGCUUGAGAGCAUCUUCGGAUGCAGAGGCGGCAGCCUUCGGUGGCGCGAUAGCGCCAACGUUCUCAACUAUGAAACGCAAAACGCGUGCUCCGUUGAAUGGAGUUUAUCAUG [A17C A24U C114A], the “polymerase ribozyme fitness (log ratio)” value was -3.86.
In the case of GGAUCUUCUCGAUCUUACAAAAAAGACAAAGCUGCCGCAAAGCUUGAGAGCAUCUUCGGAUGCAGAGGCGGCAGCCUUCGGUAGCGCGAUAGCGCAAACGUUCUCCACUAUGACACGCAAAACGCGUGCUCCGUUGAAUGGAGUUUAUCAUG [A16U U31G A37G G83A C96A A106C], the “polymerase ribozyme fitness (log ratio)” value is reported as no more than -4.2.
In the case of GGAUCUUCUCGAUCUUACAAAAAAGACAAAUCUGCCACAAAGCUUGAGAGCAUCUUCGGAUGCAGAGGCGGCAGCCUUCGGGGGCGUGAUAGCGCCAACGUUCUCAACUAUGACACGCAAACCGCGUGCUCCGUUGAAUGGAGUUUAUCAUG [A16U U82G C87U A122C], the “polymerase ribozyme fitness (log ratio)” value is reported as -2.32.
For GGAUCUUCUCGAUCUACCAAAAAAGACAUAUCUGCCACAAAGCUUGAGAGCAUCUUCGGAUGCAGAGGCGGUAGCCUUCGCUGGCGCGAUAGCGCCAACGUUCUCAACUAUGACACGCAAAACGCGUGCUCCGUUGAAUUGAGUUUAUCAUG [A17C A29U C72U G81C G140U], the “polymerase ribozyme fitness (log ratio)” value was no more than -4.2.
With GGAUCUUCUCGAUCUACCAAAAUAGACAAAUCUGCCACACAGCUUGAGAGCAUCUUCGGAUGCAGAGGCGGCAGCCUUCGGUGGCUCGAUAGCGCCAACGUUCUCAACUAUGACACGCAAAACGCGUGCUCCGUUGAAUGGAGUUUAUCAUG [A17C A23U A40C G86U] the “polymerase ribozyme fitness (log ratio)” value was no more than -4.2.
For GGAUCUUCUCGAUCUUACAAAAAAGACAAAUCUGCCACAAAGCUUGAGAGCAUCUUCGGAUGCAGAGGCGACGGCCUUCGGUGGCGCGAUAGUGCCAACGUUCUCAACUAUGCCACGAAAAACGCGUGCUCCGUUGAAUAGAGUUUAUCAUG [A16U G71A A73G C93U A113C C118A G140A], the “polymerase ribozyme fitness (log ratio)” value was no more than -4.2.
With GGAUCUUCUCGAUCUUACAAAAAAGACAAAUCUGCCACAAAGCUUGAGAGCAUCUUCGGAUGCAAAGGAGGCAGCCUUCGGUGGCGCGAUUGAGCCAACCGUCUCAACUAUGACACGCAAAAGGCGUGCUCCGUUGAAUGGAGUUUAUCAUG [A16U G65A C69A A91U C93A G100C U101G C123G] the “polymerase ribozyme fitness (log ratio)” value was no more than -4.2.
With GGAUCUUCUCGAUCUUACAAAAAAGACAAAUCUGCCACAAAGCUUGAGAGCAUCUACGGUUGCAGAGGCGGCAGCCUUCGGUGGCGCGAUAGUGCCAACGUUCUCAACUAUGACACGCAAAACGCGUGCUCCGUUGAAUGUAGUUUAUCAUG [A16U U56A A60U C93U G141U] the “polymerase ribozyme fitness (log ratio)” value was -3.72.
With GGAUCUUCUCGAUCUACCGAAAAAGACAAAUCUGCCACAAAGCUUGAGAGUAUCUUCGUAUGCAGAGGCGGCAGACUUCGGUGGCGCGAUUGCGCCAACGUUCUCAACUAUGACAGGCAACACGCGUGCUCCGUUGAAUGGAGUUUAUCAUG [A17C A19G C51U G59U C75A A91U C116G A121C] the “polymerase ribozyme fitness (log ratio)” value was no more than -4.2.
In the case of GGAUCUUCUCGAUCUACCAAAAAAGUCAAAUCUGCCACAAAGCUUGAGAGCAUCUUCGGAUGCAGAGGCGGCAGACUUCGGUGACGCGAUAGCGCCAACGUUCUCAACUAUGACACGCAAAACGCGUGCUCCGUUGAAUGUAGUUUAUCAUG [A17C A26U C75A G84A G141U], the “polymerase ribozyme fitness (log ratio)” value is reported as no more than -4.2.
In the case of GGAUCUUCUCGAUCUACCAAAAAAGACAAAUCUGCCACAAAGCUUGAGAGCAUCUUCGGAUGCAGAGGCGGCAGCCUUCGGUGGCGCGAUAGCGCCAACGUUCUCAACUAUGACACGCAAAACGCGUGCUCCGUUGAAUGGAGUUUAUCAUG [A17C], the “polymerase ribozyme fitness (log ratio)” value is reported as 0.315.
